Assay results: publication PMC12135937, “Members of the DIP and Dpr adhesion protein families use cis inhibition to shape neural development in Drosophila” (PLOS Biology, 2025)

T1: DIP-β-G recombinant protein for SPR (printed sequence) (Drosophila melanogaster)
T1 construct: DIP-β isoform G, Drosophila melanogaster; Monomeric protein was used for SPR; immobilised by amine coupling; also called Isoform G of DIP-β; not shown: His6, C-terminal, kept
T1 chain: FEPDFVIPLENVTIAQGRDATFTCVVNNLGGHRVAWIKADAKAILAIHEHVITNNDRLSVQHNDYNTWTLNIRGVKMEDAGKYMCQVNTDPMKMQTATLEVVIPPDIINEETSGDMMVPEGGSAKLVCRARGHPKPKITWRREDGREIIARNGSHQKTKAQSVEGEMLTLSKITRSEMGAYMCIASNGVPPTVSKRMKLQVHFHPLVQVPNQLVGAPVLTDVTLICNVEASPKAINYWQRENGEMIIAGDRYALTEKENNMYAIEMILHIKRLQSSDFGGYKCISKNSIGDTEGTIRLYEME

T2: DIP-β isoform G (Drosophila melanogaster)
T2 construct: has an 11 amino acid deletion in the first Ig domain relative to DIP-β-C; Monomeric protein was used for SPR; also called DIP-β-G; not shown: His6, C-terminal, kept
T2 chain: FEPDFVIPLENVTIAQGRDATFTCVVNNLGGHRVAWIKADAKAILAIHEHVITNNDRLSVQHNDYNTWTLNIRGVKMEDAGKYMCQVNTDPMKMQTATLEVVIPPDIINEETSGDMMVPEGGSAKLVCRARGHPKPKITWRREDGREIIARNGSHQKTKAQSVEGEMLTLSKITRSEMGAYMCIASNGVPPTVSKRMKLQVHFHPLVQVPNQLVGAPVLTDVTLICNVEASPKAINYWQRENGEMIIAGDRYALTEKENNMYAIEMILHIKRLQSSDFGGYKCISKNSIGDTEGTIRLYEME


Experiments:
Conditions in all cases: both partners purified
[1] = molecular target: T1, DIP-β-G recombinant protein for SPR …; test: SPR; Biacore T100, CM4 chip; DIPs immobilised by amine coupling (700-900 RU), monomeric Dpr analytes in 3-fold dilution series; 25 °C; 10 mM Tris-HCl pH 7.2, 150 mM NaCl, 1 mM EDTA, 1 mg/mL BSA, 0.01% Tween-20; equilibrium responses fit to a 1:1 model
DIP-β isoform G = molecular target: T2, DIP-β isoform G; test: SPR; Biacore T100, CM4 chip; DIPs immobilised by amine coupling (700-900 RU), monomeric Dpr analytes in 3-fold dilution series (0.012 to 9, 27 or 81 µM); 25 °C; 10 mM Tris-HCl pH 7.2, 150 mM NaCl, 1 mM EDTA, 1 mg/mL BSA, 0.01% Tween-20; equilibrium responses fit to a 1:1 model
DIP-β isoform C = molecular target: T3, DIP-β isoform C (Drosophila melanogaster); test: as above
T3 construct: Monomeric protein was used for SPR; also called DIP-β-C
T3 sequence (main, as listed by the source): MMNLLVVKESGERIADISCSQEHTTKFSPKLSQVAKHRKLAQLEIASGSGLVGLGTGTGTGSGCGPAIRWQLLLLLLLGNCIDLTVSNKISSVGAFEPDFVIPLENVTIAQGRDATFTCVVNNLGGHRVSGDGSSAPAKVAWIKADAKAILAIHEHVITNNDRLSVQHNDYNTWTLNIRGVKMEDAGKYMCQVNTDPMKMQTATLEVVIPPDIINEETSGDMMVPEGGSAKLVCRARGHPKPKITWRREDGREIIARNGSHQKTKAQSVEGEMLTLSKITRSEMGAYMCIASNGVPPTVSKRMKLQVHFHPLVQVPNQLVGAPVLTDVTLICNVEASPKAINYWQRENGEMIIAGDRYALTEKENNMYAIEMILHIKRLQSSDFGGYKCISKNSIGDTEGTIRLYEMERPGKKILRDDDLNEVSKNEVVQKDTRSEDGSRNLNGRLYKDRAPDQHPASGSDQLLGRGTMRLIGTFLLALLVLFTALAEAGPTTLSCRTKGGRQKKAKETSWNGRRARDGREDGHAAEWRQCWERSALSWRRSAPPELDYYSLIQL

Binder	Kd [1] [µM]	Kd (DIP-β isoform G) [µM]	Kd (DIP-β isoform C) [µM]
Dpr10-A recombinant protein for SPR (printed sequence) (domain or fragment, Drosophila melanogaster, Dpr10 isoform A, Drosophila melanogaster; Monomeric protein was used for SPR; analyte; not shown: His6, C-terminal, kept) WNEPYFDLTMPRNITSLVGKSAYLGCRVKHLGNKTVAWIRHRDLHILTVGTYTYTTDQRFQTSYHRDIDEWTLQIKWAQQRDAGVYECQISTQPVRSYSVNLNIVDLIDAETSDIMQQYYNDDAFYIAENRVYQSSNDEFAGMFGPIQTVAVPTATILGGPDLYVDKGSTINLTCIIKFSPEPPTHIFWYHQDKVLSEETSGGRLKFKTIKSEETKSILLIYDADLLHSGKYSCYPSNTEIASIRVHVLQGE	5.76	–	–
Dpr15 (natural protein) TLKPPPTIDDYQTIISQAGTHAYLPCNVKQLVKKPISWLRMRDGHILTVDQTTFIADQRFQSVFSPNPERWSLQIKYVQLKDEGTYECQVSTEPKASAIVHLRIVEPKTELIGESTRHVKAGSQVKLRCIISQALEPPLFINWFYNQKQIYLHNRRGWRTEIERIDLPAEVPTTSTTTTTTTTTASTTTTTTSTTPATPSTTATGSTEGATSSETLNGLVTITRSYILDAISQNDVSELGAAAGVAVATETSTAQLLTEVEATSSTSGTSTGAGLLASTSAAYAAGAAAGITTAATGDSAATAATTSAWLTTMDAEAATTAATTTTTMLPSSSFIKQITTASLIIPAVVKLDSGNYTCSPSNSAPRTIVLHVLNGE	–	159	25.3

The remaining binders from weak to strong by Kd (DIP-β isoform G), led by results:

Kd [1] [µM]	Kd (DIP-β isoform G) [µM]	Kd (DIP-β isoform C) [µM]	Binder
–	15.2	22	Dpr6 (natural protein) WMEPYFDPSTPRNVTALMGKSAYLSCRVRNLANKTVSWIRHRDIHILTVGSYTYTSDQRFQATHHQDTEDWTLQIKWAQKRDAGMYECQISTQPVRSYFVRLNVVVPTATILGGPDLHVDKGSTINLTCTVKFSPEPPAYIFWYHHEEVINYDSSRGGVSVITEKGDVTTSFLLIQNADLADSGKYSCAPSNADVASVRVHVLNGE
–	5.05	1.55	Dpr21 (natural protein) DRGPYFDTSATKNVTSLVGITGHLNCRIKNLGNKTVSWIRHRDLHLLTVSESTYTSDQRFTSIYNKQTGDWSLQIKFPQLRDSGIYECQVSTTPPVGYTMVFSVVEPITSILGGPEIYIDLGSTVNLTCVIKHLPDPPISVQWNHNNQEINYDSPRGGVSVITEKGDITTSYLLIQRASIADSGQYTCLPSNANSKSVNVHILKGD
